Measured values as given in patent US20140087995A1 (published 2014).
Numbered stars: 1 amine (or outer) side, 2 acyl side, 3 side chain; on linkers, the order of the positions; unused ones are H or OH. Bridge positions count the residues as written; N and C are the ends. * marks the point of attachment. C20 diacid = O=C(O)CCCCCCCCCCCCCCCCCCC(=O)*; γGlu = O=C(O)[C@H](CCC(=O)[*:2])N[*:1]

T1: rat calcitonin receptor (rat, UniProt P32214 25-516)
T1 construct: whole, on cells; Membranes of transiently transfected BHK tk'ts 13 cells; also called rCTR; rat calcitonin (a) receptor
T1 sequence (looked up): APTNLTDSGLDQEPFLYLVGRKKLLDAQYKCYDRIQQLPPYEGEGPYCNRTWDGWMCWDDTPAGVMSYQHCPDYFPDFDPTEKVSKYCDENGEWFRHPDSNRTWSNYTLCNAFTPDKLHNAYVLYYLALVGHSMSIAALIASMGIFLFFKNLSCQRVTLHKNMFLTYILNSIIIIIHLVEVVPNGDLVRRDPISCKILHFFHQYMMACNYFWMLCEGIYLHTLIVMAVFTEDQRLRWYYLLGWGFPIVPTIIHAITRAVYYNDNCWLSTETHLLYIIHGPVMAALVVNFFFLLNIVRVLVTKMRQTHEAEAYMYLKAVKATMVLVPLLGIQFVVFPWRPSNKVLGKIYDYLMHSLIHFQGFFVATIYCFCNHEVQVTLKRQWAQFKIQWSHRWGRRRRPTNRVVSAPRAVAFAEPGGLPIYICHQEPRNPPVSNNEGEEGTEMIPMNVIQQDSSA

T2: human calcitonin receptor (human, UniProt P30988 25-474)
T2 construct: whole, on cells; Membranes of stably transfected cells; also called hCTR; hCT
T2 sequence (looked up): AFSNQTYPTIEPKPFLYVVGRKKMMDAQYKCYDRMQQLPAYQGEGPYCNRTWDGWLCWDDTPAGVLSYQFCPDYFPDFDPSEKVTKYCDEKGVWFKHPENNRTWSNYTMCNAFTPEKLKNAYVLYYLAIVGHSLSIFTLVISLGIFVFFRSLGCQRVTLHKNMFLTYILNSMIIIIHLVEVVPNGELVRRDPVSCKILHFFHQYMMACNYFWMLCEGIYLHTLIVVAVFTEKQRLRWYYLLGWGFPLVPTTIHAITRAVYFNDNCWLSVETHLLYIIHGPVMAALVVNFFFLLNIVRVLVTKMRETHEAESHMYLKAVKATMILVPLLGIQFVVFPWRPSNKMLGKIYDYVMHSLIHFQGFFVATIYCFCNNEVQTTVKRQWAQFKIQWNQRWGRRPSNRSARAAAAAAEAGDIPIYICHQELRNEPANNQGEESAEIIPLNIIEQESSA

T3: rat amylin receptor (rat calcitonin receptor + rat RAMP 3) (rat, UniProt P32214 25-516; Q9JJ73 23-147)
T3 construct: whole, on cells; Membranes of transiently transfected BHK tk'ts 13 cells; also called rAmylin-R; rat amylin 3(a) receptor
T3 sequence (looked up) 1: T1 sequence (looked up)
T3 sequence (looked up) 2: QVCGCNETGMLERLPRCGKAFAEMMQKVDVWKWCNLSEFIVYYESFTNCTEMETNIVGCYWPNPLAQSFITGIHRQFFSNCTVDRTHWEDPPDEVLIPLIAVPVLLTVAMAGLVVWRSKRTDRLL

B1: N^-1-[(4S)-4-carboxy-4-(19-carboxynonadecanoylamino)butanoyl]-Gly[Arg1,His14,Arg17,Pro21,Pro27,His34]-h-amylin (peptide)
peptide: {C20 diacid-γGlu}-GRCNTATCATQRLAHFLRHSSPNFGAIPSSTNVGHNTY-NH2
modifications: disulfide 3-8
SMILES: CC[C@H](C)[C@H](NC(=O)[C@H](C)NC(=O)CNC(=O)[C@H](Cc1ccccc1)NC(=O)[C@H](CC(N)=O)NC(=O)[C@@H]1CCCN1C(=O)[C@H](CO)NC(=O)[C@H](CO)NC(=O)[C@H](Cc1c[nH]cn1)NC(=O)[C@H](CCCNC(=N)N)NC(=O)[C@H](CC(C)C)NC(=O)[C@H](Cc1ccccc1)NC(=O)[C@H](Cc1c[nH]cn1)NC(=O)[C@H](C)NC(=O)[C@H](CC(C)C)NC(=O)[C@H](CCCNC(=N)N)NC(=O)[C@H](CCC(N)=O)NC(=O)[C@@H](NC(=O)[C@H](C)NC(=O)[C@@H]1CSSC[C@H](NC(=O)[C@H](CCCNC(=N)N)NC(=O)CNC(=O)CC[C@H](NC(=O)CCCCCCCCCCCCCCCCCCC(=O)O)C(=O)O)C(=O)N[C@@H](CC(N)=O)C(=O)N[C@@H]([C@@H](C)O)C(=O)N[C@@H](C)C(=O)N[C@@H]([C@@H](C)O)C(=O)N1)[C@@H](C)O)C(=O)N1CCC[C@H]1C(=O)N[C@@H](CO)C(=O)N[C@@H](CO)C(=O)N[C@H](C(=O)N[C@@H](CC(N)=O)C(=O)N[C@H](C(=O)NCC(=O)N[C@@H](Cc1c[nH]cn1)C(=O)N[C@@H](CC(N)=O)C(=O)N[C@H](C(=O)N[C@@H](Cc1ccc(O)cc1)C(N)=O)[C@@H](C)O)C(C)C)[C@@H](C)O
notes: Synthetic acylated analogue of human amylin, extended by Gly at position -1; also called compound 100
B2: N^-1-[(4S)-4-carboxy-4-(19-carboxynonadecanoylamino)butanoyl]-Gly[Arg1,Ala14,Arg17,Pro21,Pro27,His34]-h-amylin (peptide)
peptide: {C20 diacid-γGlu}-GRCNTATCATQRLAAFLRHSSPNFGAIPSSTNVGHNTY-NH2
modifications: disulfide 3-8
SMILES: CC[C@H](C)[C@H](NC(=O)[C@H](C)NC(=O)CNC(=O)[C@H](Cc1ccccc1)NC(=O)[C@H](CC(N)=O)NC(=O)[C@@H]1CCCN1C(=O)[C@H](CO)NC(=O)[C@H](CO)NC(=O)[C@H](Cc1c[nH]cn1)NC(=O)[C@H](CCCNC(=N)N)NC(=O)[C@H](CC(C)C)NC(=O)[C@H](Cc1ccccc1)NC(=O)[C@H](C)NC(=O)[C@H](C)NC(=O)[C@H](CC(C)C)NC(=O)[C@H](CCCNC(=N)N)NC(=O)[C@H](CCC(N)=O)NC(=O)[C@@H](NC(=O)[C@H](C)NC(=O)[C@@H]1CSSC[C@H](NC(=O)[C@H](CCCNC(=N)N)NC(=O)CNC(=O)CC[C@H](NC(=O)CCCCCCCCCCCCCCCCCCC(=O)O)C(=O)O)C(=O)N[C@@H](CC(N)=O)C(=O)N[C@@H]([C@@H](C)O)C(=O)N[C@@H](C)C(=O)N[C@@H]([C@@H](C)O)C(=O)N1)[C@@H](C)O)C(=O)N1CCC[C@H]1C(=O)N[C@@H](CO)C(=O)N[C@@H](CO)C(=O)N[C@H](C(=O)N[C@@H](CC(N)=O)C(=O)N[C@H](C(=O)NCC(=O)N[C@@H](Cc1c[nH]cn1)C(=O)N[C@@H](CC(N)=O)C(=O)N[C@H](C(=O)N[C@@H](Cc1ccc(O)cc1)C(N)=O)[C@@H](C)O)C(C)C)[C@@H](C)O
notes: Synthetic acylated analogue of human amylin, extended by Gly at position -1
B3: N{-1}-[(4S)-4-carboxy-4-(19-carboxynonadecanoylamino)butanoyl]-Gly[Arg1,His14,Arg17,Pro21,Pro27]-h-amylin (peptide)
peptide: {C20 diacid-γGlu}-GRCNTATCATQRLAHFLRHSSPNFGAIPSSTNVGSNTY-NH2
modifications: disulfide 3-8
SMILES: CC[C@H](C)[C@H](NC(=O)[C@H](C)NC(=O)CNC(=O)[C@H](Cc1ccccc1)NC(=O)[C@H](CC(N)=O)NC(=O)[C@@H]1CCCN1C(=O)[C@H](CO)NC(=O)[C@H](CO)NC(=O)[C@H](Cc1c[nH]cn1)NC(=O)[C@H](CCCNC(=N)N)NC(=O)[C@H](CC(C)C)NC(=O)[C@H](Cc1ccccc1)NC(=O)[C@H](Cc1c[nH]cn1)NC(=O)[C@H](C)NC(=O)[C@H](CC(C)C)NC(=O)[C@H](CCCNC(=N)N)NC(=O)[C@H](CCC(N)=O)NC(=O)[C@@H](NC(=O)[C@H](C)NC(=O)[C@@H]1CSSC[C@H](NC(=O)[C@H](CCCNC(=N)N)NC(=O)CNC(=O)CC[C@H](NC(=O)CCCCCCCCCCCCCCCCCCC(=O)O)C(=O)O)C(=O)N[C@@H](CC(N)=O)C(=O)N[C@@H]([C@@H](C)O)C(=O)N[C@@H](C)C(=O)N[C@@H]([C@@H](C)O)C(=O)N1)[C@@H](C)O)C(=O)N1CCC[C@H]1C(=O)N[C@@H](CO)C(=O)N[C@@H](CO)C(=O)N[C@H](C(=O)N[C@@H](CC(N)=O)C(=O)N[C@H](C(=O)NCC(=O)N[C@@H](CO)C(=O)N[C@@H](CC(N)=O)C(=O)N[C@H](C(=O)N[C@@H](Cc1ccc(O)cc1)C(N)=O)[C@@H](C)O)C(C)C)[C@@H](C)O
notes: Synthetic acylated analogue of human amylin, extended by Gly at position -1; also called compound 99
B4: N^-1-[(4S)-4-carboxy-4-(19-carboxynonadecanoylamino)butanoyl]-Gly[Arg1,His14,Arg17,Pro21,Pro27,Pro34]-h-amylin (peptide)
peptide: {C20 diacid-γGlu}-GRCNTATCATQRLAHFLRHSSPNFGAIPSSTNVGPNTY-NH2
modifications: disulfide 3-8
SMILES: CC[C@H](C)[C@H](NC(=O)[C@H](C)NC(=O)CNC(=O)[C@H](Cc1ccccc1)NC(=O)[C@H](CC(N)=O)NC(=O)[C@@H]1CCCN1C(=O)[C@H](CO)NC(=O)[C@H](CO)NC(=O)[C@H](Cc1c[nH]cn1)NC(=O)[C@H](CCCNC(=N)N)NC(=O)[C@H](CC(C)C)NC(=O)[C@H](Cc1ccccc1)NC(=O)[C@H](Cc1c[nH]cn1)NC(=O)[C@H](C)NC(=O)[C@H](CC(C)C)NC(=O)[C@H](CCCNC(=N)N)NC(=O)[C@H](CCC(N)=O)NC(=O)[C@@H](NC(=O)[C@H](C)NC(=O)[C@@H]1CSSC[C@H](NC(=O)[C@H](CCCNC(=N)N)NC(=O)CNC(=O)CC[C@H](NC(=O)CCCCCCCCCCCCCCCCCCC(=O)O)C(=O)O)C(=O)N[C@@H](CC(N)=O)C(=O)N[C@@H]([C@@H](C)O)C(=O)N[C@@H](C)C(=O)N[C@@H]([C@@H](C)O)C(=O)N1)[C@@H](C)O)C(=O)N1CCC[C@H]1C(=O)N[C@@H](CO)C(=O)N[C@@H](CO)C(=O)N[C@H](C(=O)N[C@@H](CC(N)=O)C(=O)N[C@H](C(=O)NCC(=O)N1CCC[C@H]1C(=O)N[C@@H](CC(N)=O)C(=O)N[C@H](C(=O)N[C@@H](Cc1ccc(O)cc1)C(N)=O)[C@@H](C)O)C(C)C)[C@@H](C)O
notes: as for B2
B5: N^-1-[(4S)-4-carboxy-4-(19-carboxynonadecanoylamino)butanoyl]-Gly[Arg1,Ala14,Arg17,Pro21,Pro27,Pro34]-h-amylin (peptide)
peptide: {C20 diacid-γGlu}-GRCNTATCATQRLAAFLRHSSPNFGAIPSSTNVGPNTY-NH2
modifications: disulfide 3-8
notes: as for B2

biological target: T1, rat calcitonin receptor; assay: ratio of IC50 on rat calcitonin receptor to IC50 on rat amylin receptor (reference m40)

Ratio rCT/rAmylin binding	Binder
27.7	B1
60.9	B2
79.8	B3
97.7	B4
129	B5

biological target: T2, human calcitonin receptor; assay: ratio of IC50 on human calcitonin receptor to IC50 on human amylin receptor (reference m42), SPA competition
In short: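 IC₅₀ values were derived by one-site competition analysis of SPA counts. Cell membranes (35 ng/μL) with SPA beads were incubated with test compounds for 120 min at 25° C in Hepes buffer, pH 7.4, containing CaCl2, MgCl₂, OA and Tween20.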

Ratio hCT/hAmylin binding	Binder
65.3	B1
68.6	B2
100	B3
36.2	B4
26.5	B5

biological target: T1, rat calcitonin receptor; assay: SPA competition with 125I-calcitonin on membranes of BHK tk'ts 13 cells with rat calcitonin receptor (Assay VIII)

IC50 [nM]	Binder
311	B1
492	B2
216	B3
65.9	B4
56.3	B5

biological target: T3, rat amylin receptor (rat calcitonin …); assay: SPA competition with 125I-rat amylin on membranes of BHK tk'ts 13 cells with rat calcitonin receptor + rat RAMP3 (Assay VI)

IC50 [nM]	Binder
11.2	B1
8.07	B2
2.7	B3
0.674	B4
0.436	B5
